Each block holds one substance with its values, some of them ahead of it.
Legend:
[1] = biological target: C3 fragments (iC3b, C3dg and C3d) of human complement component C3, deposited on cells or tissue (human) (UniProt P01024); assay: flow cytometry, rabbit RBCs + human serum, no TT30, panel A12-2-0
[2] = biological target: C3 fragments (iC3b, C3dg and C3d) of human complement component C3, deposited on cells or tissue (human) (UniProt P01024); assay: flow cytometry, rabbit RBCs + human serum, no TT30, panel A12-3-0
[3] = biological target: C3 fragments (iC3b, C3dg and C3d) of human complement component C3, deposited on cells or tissue (human) (UniProt P01024); assay: flow cytometry, rabbit RBCs + human serum + TT30 1.4 µM, time 0, panel A5-2-0 [Time: 0]
[4] = biological target: C3 fragments (iC3b, C3dg and C3d) of human complement component C3, deposited on cells or tissue (human) (UniProt P01024); assay: flow cytometry, rabbit RBCs + human serum + TT30 1.4 µM, time 0, panel A5-3-0 [Time: 0]
[5] = biological target: C3 fragments (iC3b, C3dg and C3d) of human complement component C3, deposited on cells or tissue (human) (UniProt P01024); assay: flow cytometry, rabbit RBCs + human serum + TT30 0.46 µM, time 0, panel A8-2-0 [Time: 0]
[6] = biological target: C3 fragments (iC3b, C3dg and C3d) of human complement component C3, deposited on cells or tissue (human) (UniProt P01024); assay: flow cytometry, rabbit RBCs + human serum + TT30 0.46 µM, time 0, panel A8-3-0 [Time: 0]
[7] = biological target: C3 fragments (iC3b, C3dg and C3d) of human complement component C3, deposited on cells or tissue (human) (UniProt P01024); assay: flow cytometry, rabbit RBCs + human serum + TT30 0.06 µM, time 0, panel A11-2-0 [Time: 0]
[8] = biological target: C3 fragments (iC3b, C3dg and C3d) of human complement component C3, deposited on cells or tissue (human) (UniProt P01024); assay: flow cytometry, rabbit RBCs + human serum + TT30 0.06 µM, time 0, panel A11-3-0 [Time: 0]
[9] = biological target: C3 fragments (iC3b, C3dg and C3d) of human complement component C3, deposited on cells or tissue (human) (UniProt P01024); assay: flow cytometry, rabbit RBCs + human serum + TT30 0.46 µM, 2 hr, panel A8-2-2 [Time: 2 hr]
[10] = biological target: C3 fragments (iC3b, C3dg and C3d) of human complement component C3, deposited on cells or tissue (human) (UniProt P01024); assay: flow cytometry, rabbit RBCs + human serum + TT30 0.46 µM, 2 hr, panel A8-2-3 [Time: 2 hr]
[11] = biological target: C3 fragments (iC3b, C3dg and C3d) of human complement component C3, deposited on cells or tissue (human) (UniProt P01024); assay: flow cytometry, rabbit RBCs + human serum + TT30 0.46 µM, 4 hr, panel A8-4-2 [Time: 4 hr]
[12] = biological target: C3 fragments (iC3b, C3dg and C3d) of human complement component C3, deposited on cells or tissue (human) (UniProt P01024); assay: flow cytometry, rabbit RBCs + human serum + TT30 0.46 µM, 4 hr, panel A8-4-3 [Time: 4 hr]
[13] = biological target: C3 fragments (iC3b, C3dg and C3d) of human complement component C3, deposited on cells or tissue (human) (UniProt P01024); assay: flow cytometry, rabbit RBCs + human serum + TT30 0.46 µM, 24 hr, panel A8-24-2 [Time: 24 hr]
[14] = biological target: C3 fragments (iC3b, C3dg and C3d) of human complement component C3, deposited on cells or tissue (human) (UniProt P01024); assay: flow cytometry, rabbit RBCs + human serum + TT30 0.46 µM, 24 hr, panel A8-24-3 [Time: 24 hr]
[15] = biological target: C3 fragments (iC3b, C3dg and C3d) of human complement component C3, deposited on cells or tissue (human) (UniProt P01024); assay: flow cytometry, rabbit RBCs + human serum + TT30 3.7 µM, time 0, panel A2-2-0; filing: no C3 fragments or TT30 on the cells at this concentration [Time: 0]
[16] = biological target: C3 fragments (iC3b, C3dg and C3d) of human complement component C3, deposited on cells or tissue (human) (UniProt P01024); assay: flow cytometry, rabbit RBCs + human serum + TT30 3.7 µM, time 0, panel A2-3-0; filing: no C3 fragments or TT30 on the cells at this concentration [Time: 0]
[17] = biological target: C3 fragments (iC3b, C3dg and C3d) of human complement component C3, deposited on cells or tissue (human) (UniProt P01024); assay: flow cytometry, rabbit RBCs + human serum + TT30 1.4 µM, time 0, panel A5-1-0; isotype control for anti-C3d [Time: 0]
TT30 (human) [18] = assay: flow cytometry, rabbit RBCs + human serum + TT30 1.4 µM, time 0, panel A5-2-0; isotype control for HB5 [Time: 0]
Sequence of TT30 (human) (chain, as listed by the source limits assumed): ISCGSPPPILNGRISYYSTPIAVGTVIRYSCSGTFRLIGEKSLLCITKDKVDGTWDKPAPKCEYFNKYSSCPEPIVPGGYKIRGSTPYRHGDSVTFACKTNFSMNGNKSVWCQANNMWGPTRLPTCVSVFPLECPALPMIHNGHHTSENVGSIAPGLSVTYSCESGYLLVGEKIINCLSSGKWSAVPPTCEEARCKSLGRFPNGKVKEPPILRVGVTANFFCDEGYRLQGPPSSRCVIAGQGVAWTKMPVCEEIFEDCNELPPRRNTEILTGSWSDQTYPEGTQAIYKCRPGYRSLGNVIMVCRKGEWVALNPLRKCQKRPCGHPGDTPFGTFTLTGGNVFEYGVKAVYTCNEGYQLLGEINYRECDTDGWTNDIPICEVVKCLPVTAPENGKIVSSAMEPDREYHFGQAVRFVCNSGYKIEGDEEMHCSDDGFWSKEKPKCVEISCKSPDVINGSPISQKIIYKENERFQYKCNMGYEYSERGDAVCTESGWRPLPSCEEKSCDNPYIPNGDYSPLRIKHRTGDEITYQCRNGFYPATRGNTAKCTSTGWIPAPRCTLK

TT30 (human) [19] = assay: flow cytometry, rabbit RBCs + human serum + TT30 0.46 µM, 2 hr, panel A8-2-2; isotype control for HB5 [Time: 2 hr]
TT30 (human) [20] = assay: flow cytometry, rabbit RBCs + human serum + TT30 0.46 µM, 4 hr, panel A8-4-2; isotype control for HB5 [Time: 4 hr]
TT30 (human) [21] = assay: flow cytometry, rabbit RBCs + human serum + TT30 0.46 µM, 24 hr, panel A8-24-2; isotype control for HB5 [Time: 24 hr]

Sequence of UniProt P01024 (P01024 1002-1303 limits assumed): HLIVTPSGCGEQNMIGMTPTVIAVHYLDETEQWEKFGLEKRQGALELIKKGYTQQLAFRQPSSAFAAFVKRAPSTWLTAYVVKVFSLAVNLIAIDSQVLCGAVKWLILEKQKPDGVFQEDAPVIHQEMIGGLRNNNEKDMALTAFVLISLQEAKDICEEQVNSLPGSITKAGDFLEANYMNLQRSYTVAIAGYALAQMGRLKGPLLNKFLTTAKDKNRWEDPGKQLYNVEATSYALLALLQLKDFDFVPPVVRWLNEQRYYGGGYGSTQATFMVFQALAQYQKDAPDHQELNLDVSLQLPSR

% of gated cells in Q4-UL (C3d-APC+, IgG2a-FITC-) [1]: 100% | % of gated cells in Q4-UR (C3d-APC+, IgG2a-FITC+) [1]: 0% | % of gated cells in Q4-UL (C3d-APC+, HB5-FITC-) [2]: 94.9% | % of gated cells in Q4-UR (C3d-APC+, HB5-FITC+) [2]: 2.6% | % of gated cells in Q4-UL (C3d-APC+, IgG2a-FITC-) [3]: 84.9% | % of gated cells in Q4-UR (C3d-APC+, IgG2a-FITC+) [3]: 0% | % of gated cells in Q4-UL (C3d-APC+, HB5-FITC-) [4]: 81% | % of gated cells in Q4-UR (C3d-APC+, HB5-FITC+) [4]: 4% | % of gated cells in Q4-UL (C3d-APC+, IgG2a-FITC-) [5]: 84.8% | % of gated cells in Q4-UR (C3d-APC+, IgG2a-FITC+) [5]: 0% | % of gated cells in Q4-UL (C3d-APC+, HB5-FITC-) [6]: 11.5% | % of gated cells in Q4-UR (C3d-APC+, HB5-FITC+) [6]: 69.8% | % of gated cells in Q4-UL (C3d-APC+, IgG2a-FITC-) [7]: 90.3% | % of gated cells in Q4-UR (C3d-APC+, IgG2a-FITC+) [7]: 0% | % of gated cells in Q4-UL (C3d-APC+, HB5-FITC-) [8]: 78.9% | % of gated cells in Q4-UR (C3d-APC+, HB5-FITC+) [8]: 5.3% | % of gated cells in Q4-UL (C3d-APC+, IgG2a-FITC-) [9]: 89.8% | % of gated cells in Q4-UR (C3d-APC+, IgG2a-FITC+) [9]: 0.3% | % of gated cells in Q4-UL (C3d-APC+, HB5-FITC-) [10]: 25.3% | % of gated cells in Q4-UR (C3d-APC+, HB5-FITC+) [10]: 67.5% | % of gated cells in Q4-UL (C3d-APC+, IgG2a-FITC-) [11]: 93.4% | % of gated cells in Q4-UR (C3d-APC+, IgG2a-FITC+) [11]: 0% | % of gated cells in Q4-UL (C3d-APC+, HB5-FITC-) [12]: 38.2% | % of gated cells in Q4-UR (C3d-APC+, HB5-FITC+) [12]: 54.7% | % of gated cells in Q4-UL (C3d-APC+, IgG2a-FITC-) [13]: 97.9% | % of gated cells in Q4-UR (C3d-APC+, IgG2a-FITC+) [13]: 0.3% | % of gated cells in Q4-UL (C3d-APC+, HB5-FITC-) [14]: 51.7% | % of gated cells in Q4-UR (C3d-APC+, HB5-FITC+) [14]: 44.4% | % of gated cells in Q4-UL (C3d-APC+, IgG2a-FITC-) [15]: 2.4% | % of gated cells in Q4-UR (C3d-APC+, IgG2a-FITC+) [15]: 0% | % of gated cells in Q4-UL (C3d-APC+, HB5-FITC-) [16]: 0% | % of gated cells in Q4-UR (C3d-APC+, HB5-FITC+) [16]: 0%
Substance: C3d (A702)-APC (antibody)

% of gated cells in Q4-UR (IgG1-APC+, HB5-FITC+) [17]: 0.4%
Substance: IgG1-APC (antibody)

% of gated cells in Q4-LR (C3d-APC-, IgG2a-FITC+) (TT30 (human) [18]): 0.5% | % of gated cells in Q4-LR (C3d-APC-, IgG2a-FITC+) (TT30 (human) [19]): 0.3% | % of gated cells in Q4-UR (C3d-APC+, IgG2a-FITC+) (TT30 (human) [19]): 0.3% | % of gated cells in Q4-LR (C3d-APC-, IgG2a-FITC+) (TT30 (human) [20]): 0.3% | % of gated cells in Q4-LR (C3d-APC-, IgG2a-FITC+) (TT30 (human) [21]): 0.3% | % of gated cells in Q4-UR (C3d-APC+, IgG2a-FITC+) (TT30 (human) [21]): 0.3%
Substance: IgG2a-FITC (antibody)

Reference: patent US10239937
